The record followed here is PMC3907030, “Using phage display selected antibodies to dissect microbiomes for complete de novo genome sequencing of low abundance microbes” (BMC Microbiology, 2013).

First the molecules themselves.
B1: α-La4 scFv (scFv, V domains shown)
VH: QVQLQQSGPGLVKPSQILSLTCAISGDSVSSNSADWNWIRQSPSRGLEWLGRTYYRSKWYNDYAVLVKSRITINPDTSKNQFSLQLNSVTPEDTAVYYCARGSLGAFDIWGQGTMVTVSS
VL: QAVVTQEPSASETPGQRVTISCSGSDSNIGSNYVYWYQQVPGTAPKLVIYRNNQRPSGVPDRFSGSKSGTSASLGIRGLQSEDEADYYCAAWDDSVSGWVFGGRTKLTVL
notes: The vector adds an N-terminal PelB leader; source: E. coli BL21 Gold, pEP-GFP11, culture supernatant; not shown: SV5, C-terminal, kept
B2: α-La3 scFv (scFv, V domains shown)
VH: QVQLQESGPGLVKPSETLSLTCAISGDSVSSNSAAWNWIRQSPSRGLEWLGRTYYRSKWYNDYAVSVKSRITINPDTSKNQFSLQLNSVTPEDTAVYYCATGDAFDMWGQGTMVTVSS
VL: SYVLTQPPSVSGTPGQRVTISCSGSSSNIERNYVYWYQQLPGTAPKLLIYRNNQRPSGVPDRFSGSKSGTSASLAISGLRSEDEADYYCAAWDDSQNAYVFGTGTKLTVL
notes: as for B1
B3: α-La2 scFv (scFv, V domains shown)
VH: EVQLVETGGGLVKPGGSLRLSCAASGFTLSNAWMHWVRQAPGKGLEWVGRIRRKTDGGTTDYAAPVKGRFTISRDDSKNTLYLQMNSLKTEDTAVYYCSTDDYGGNWGQGTLVTVSS
VL: QSVLTQPASVSGSPGQSITISCTGTSSDVGSYNYVSWYQQHPGKAPKLMIYDVSNRPSGVSNRFSGSKSGNTASLTISGLQAEDEADYYCSSYTSSSTNVFGTGTQLTVL
notes: The vector adds an N-terminal PelB leader; also called anti-La2; source: E. coli BL21 Gold, pEP-GFP11, culture supernatant; not shown: SV5, C-terminal, kept
B4: α-La1 scFv (scFv, V domains shown)
VH: B1 VH with I17T, T21A, D35A, T53I, L66S, G102E, S103R, L104Y
VL: SYELTQPPSASGTPGQRVTISCSGSSSNIGSNYVYWYQQLPGTAPKLLIYRNNQRPSGVPDRFSGSKSGTSASLAITGLQAEDEADYYCQSYDSSLSGYVFGTRTKLTVL
notes: residues before the VL; VL of α-La1; linker between VL and VH; VH of α-La1; residues between the VH and the SV5 tag; Expressed from pEP-GFP11 with an N-terminal PelB leader and C-terminal SV5, 6x His and GFP strand 11 tags; limits of VL, linker and VH and the reading of GAHA and AS as vector-derived residues are my surmise; also called anti-La1; α-La scFv; source: …
B5: α-La4 scFv (scFv, V domains shown)
VH: B1 VH
VL: B1 VL
notes: residues before the VL; VL of α-La4; linker between VL and VH; VH of α-La4; residues between the VH and the SV5 tag; Expressed from pEP-GFP11 with an N-terminal PelB leader and C-terminal SV5, 6x His and GFP strand 11 tags; limits of VL, linker and VH and the reading of GAHA and AS as vector-derived residues are my surmise; also called anti-La4; source: E. coli …
B6: α-La3 scFv (scFv, V domains shown)
VH: B2 VH
VL: B2 VL
notes: residues before the VL; VL of α-La3; linker between VL and VH; VH of α-La3; residues between the VH and the SV5 tag; Expressed from pEP-GFP11 with an N-terminal PelB leader and C-terminal SV5, 6x His and GFP strand 11 tags; limits of VL, linker and VH and the reading of GAHA and AS as vector-derived residues are my surmise; also called anti-La3; source: E. coli …
B7: α-La2 scFv (scFv, V domains shown)
VH: B3 VH
VL: B3 VL
notes: residues before the VL; VL of α-La2; linker between VL and VH; VH of α-La2; residues between the VH and the SV5 tag; Expressed from pEP-GFP11 with an N-terminal PelB leader and C-terminal SV5, 6x His and GFP strand 11 tags; limits of VL, linker and VH and the reading of GAHA and AS as vector-derived residues are my surmise; also called anti-La2; source: E. coli …

Changes are numbered by the printed parent chain.

T2 sequence (P35829 25-444): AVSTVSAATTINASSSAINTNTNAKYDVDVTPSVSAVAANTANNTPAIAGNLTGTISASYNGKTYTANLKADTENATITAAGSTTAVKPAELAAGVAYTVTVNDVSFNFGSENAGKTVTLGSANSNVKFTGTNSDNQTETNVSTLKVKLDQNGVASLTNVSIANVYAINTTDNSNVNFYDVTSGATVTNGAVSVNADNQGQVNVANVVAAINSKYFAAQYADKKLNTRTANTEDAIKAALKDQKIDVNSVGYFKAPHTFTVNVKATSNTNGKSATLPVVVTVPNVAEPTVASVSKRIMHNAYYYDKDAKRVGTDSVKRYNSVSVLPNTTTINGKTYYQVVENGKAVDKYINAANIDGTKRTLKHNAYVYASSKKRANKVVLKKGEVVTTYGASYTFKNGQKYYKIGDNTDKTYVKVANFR
T1 sequence (P35829 25-444): as above

The first test addresses T1, L. acidophilus S-layer A protein (Lactobacillus acidophilus (ATCC 4356; …, UniProt P35829).
T1 construct: S-layer A protein (SlpA) of Lactobacillus acidophilus, Uniprot P35829; band of ~45 kDa; On the bacterial surface in flow cytometry; denatured (SDS, β-mercaptoethanol, boiled) on the blot; The MS search used an L. acidophilus NCFM database; also called SlpA; S-layer protein A
Put plainly: flow cytometry on cells; 200 μl scFv culture supernatant added to 10^6-10^7 washed bacteria in PBS, 1 h at RT; detected with anti-SV5-PE; BD LSRII. Conditions: partners not purified. For orientation: A flow cytometer gives signals particle by particle.
For the molecule B1, the binding result is on record as “binds”.
On the same count and under the same terms, the value for B2 was “binds”.
Still for that read-out and setting: in the case of B3 it was “binds”.

A further test concerns the target T2, L. acidophilus S-layer A protein (SlpA), on L. acidophilus ATCC 4356 cells (Lactobacillus acidophilus ATCC 4356, UniProt P35829).
T2 construct: the flow cytometry itself was done on whole bacteria; also called S-layer protein A; Surface layer protein A; source: endogenous, on intact L. acidophilus ATCC 4356 cells
Put plainly: flow cytometry on cells; scFv culture supernatant (200 μl, unpurified) incubated with 10^6-10^7 washed bacteria in PBS, 1 h at RT; detected with anti-SV5-PE; BD LSRII. The note with it: partners not purified.
As for B4, the binding result was “binds”.
The same measure, in the same setting: the value for B5 was “binds”; that for B6 was “binds”.
The same measure, in the same setting: the value for B7 was “binds”.

In the next test the target is T3, L. acidophilus S-layer A protein (SlpA), on L. acidophilus ATCC 832 cells (Lactobacillus acidophilus ATCC 832; …, UniProt P35829).
T3 construct: the flow cytometry was done on whole bacteria; also called L. acidophilus st; source: endogenous, on intact L. acidophilus ATCC 832 cells
T3 sequence (P35829 25-444): as above
Described as above. The note with it: partners not purified.
B4: the binding result is on record as “binds”.
Same read-out and setting: in the case of B5 it was “binds”; in that of B6, “binds”.
